Test results: patent publication US8324344B2, “Membrane transduction peptides and methods of delivering material to a target cell” (STC.UNM, priority 2008, dated 2012)
“Also recorded” adds a separate entry of the source.

What was measured:
HT-1080 cells [1] = experiment: Confocal microscopy of Alexa Fluor 488-conjugated TFPI-2 internalization in HT-1080 cells; format: cell-based, human; settings: 50 μg/ml
Description: The internalization of recombinant TFPI-2 in HT-1080 cells was assessed by confocal microscopy using a Zeiss LSM510-META microscope and Alexa Fluor 488-conjugated TFPI-2. Approximately 0.5 mg of recombinant TFPI-2 protein was labeled with Alexa Fluor 488 dye following the manufacturer's instructions. Alexa Fluor-conjugated protein (50 μg/ml) was added to two sets of HT-1080 cells that were grown to confluence in two-chamber culture slides and incubated either at 37° C. or 4° C. for different time periods. Cells were then washed twice with cold PBS and fixed with 4% paraformaldehyde solution for 15 minutes. The slides were further rinsed twice with cold PBS, treated with a drop of mounting medium containing 4′,6-diamidino-2-phenylindole (DAPI), and covered with a coverslip for confocal microscopy.

HT-1080 cells [2] = experiment: Internalization of offered recombinant proteins in HT-1080 cells, immunoblotting of cytosolic and nuclear fractions; format: cell-based, human; settings: 1 μM; for Internalization to cytosol and nucleus of HT-1080 cells: 37° C.
Description: HT-1080 cells were grown in six-well plates under standard conditions. At confluence, the cells were treated with fresh medium containing either wild-type TFPI-2, TFPI-2^1-188, R24Q KD1, R24K KD1, or R24K KD1-CT as previously described (Kempaiah and Kisiel, Apoptosis, 2008;13:702-715). Briefly, duplicate wells were treated with purified proteins (1 μM final concentration) and incubated at either 37° C. or 4° C. for different time periods. Two wells were also treated with phosphate-buffered saline (PBS) at each temperature to serve as a control. At selected time points, the media was removed and the cells were rinsed once with PBS. The cells were then washed with 1 M NaCl/PBS for 30 minutes with gentle shaking to dissociate cell surface-bound proteins (Iino et al., Arterioscler. Thromb. Vasc. Biol., 1998;18:40-46). Finally, the cells were rinsed once with PBS, trypsinized and harvested for the preparation of cell lysates and cell fractions.
To prepare total cell lysates, 1-3×10^6 cells were lysed by sonication in 500 μl of lysis buffer containing of 125 mM Tris-HCl (pH 6.8), 2% SDS, 10% glycerol, 50 mM sodium phosphate, 1 mM phenylmethanesulphonylfluoride (PMSF) and protease inhibitor cocktail. The lysate was kept on ice for about 10 minutes, centrifuged for 15 minutes at 10,000×g at 4° C., and the supernatant recovered. To prepare nuclear and cytosolic fractions, approximately 2×10^6 cells were harvested and washed twice with cold PBS by centrifugation at 600×g in a Beckman J-6M/E centrifuge for seven minutes at 4° C. Five volumes of ice cold cytosolic buffer (10 mM Hepes pH 7.4, 0.33 M sucrose, 1 mM MgCl2, 0.1% Triton X-100 and protease inhibitor cocktail) was added to the cells and incubated on ice for 15 minutes. The cytosolic fraction was collected by centrifugation at 900×g for five minutes at 4° C. The resulting undissolved pellet was washed twice with cytosolic buffer followed by centrifugation at 900×g for five minutes at 4° C. Finally, the resulting pellet was resuspended in five volumes of ice cold buffer containing 0.45 M NaCl in 10 mM Hepes (pH 7.4) and protease inhibitor cocktail. The suspension was incubated on ice for an additional 15 minutes to dissolve the nucleus, and subsequently centrifuged at 18,000×g for five minutes at 4° C. The resulting supernatant was collected as the nuclear extract. All samples were boiled for three minutes in the presence of 5% SDS and stored at −20° C. until use.
The cell lysate, cytosol and nuclear fractions were subjected to SDS-PAGE using 4-20% polyacrylamide gradient gels. […] The membranes were then probed with specific antibodies dissolved in fresh blocking buffer. Immunoreactive proteins were identified using HRP-conjugated secondary antibodies and a chemiluminescent reagent system essentially as described (Kempaiah et al., Mol. Cancer, 2007;6:20). The integrity of the cytosolic and nuclear fractions was verified using anti-α-tubulin and anti-histone-H1 antibodies, respectively (Guo et al., Am. J Physiol. Cell Physiol., 2007;292:2095-2102).
The relative intensity of the Western blot bands were quantified using QUANTISCAN software (Biosoft, Cambridge, U.K.). The intensities are reported in arbitrary units (A.U.) obtained by subtracting the background value from the corresponding band's mean value.

HT-1080 cells [3] = experiment: Localization of protein in stably-transfected overexpressing HT-1080 cells, immunoblotting and immunocytochemistry; format: cell-based, human; settings: HT-1080 cells stably transfected with cDNA (FIG. 3, FIG. 4C, 4D)
Description: HT-1080 and HEK 293 cell lines were stably transfected to overexpress either wild-type human TFPI-2 or a mutant TFPI-2 construct lacking the carboxy-terminal tail (TFPI-2^1-188), and were maintained as described (Chand et al., Blood, 2004;103:1069-1077, Du et al., Arch. Biochem. Biophys:, 2003;417:96-104). An anti-human TFPI-2 murine monoclonal antibody designated as SK-9 was prepared as described (Du et al., Arch. Biochem. Biophys., 2003;417:96-104) and coupled to Affi-Gel 10 according to the manufacturer's recommendation. Recombinant human TFPI-2 was purified from HEK 293 serum-free conditioned media by a two-step chromatography procedure involving heparin-agarose (Sprecher et al., Proc. Natl. Acad. Sci. USA., 1994;91:3353-3357) and SK-9-AffiGel 10 affinity chromatography. In the latter procedure, heparin-agarose purified TFPI-2 was dialyzed against 50 mM Tris-HCl (pH 7.5) and applied to the SK-9-AffiGel 10 column equilibrated at room temperature with this buffer. After a wash step with 50 mM Tris-HCl (pH 7.5)/0.5 M NaCl, TFPI-2 was eluted with 0.1 M glycine (pH 2.5)/0.5 M NaCl into one-tenth volume of 1 M Tris-HCl (pH 8.8) to immediately neutralize the pH 2.5 glycine. […]

human tumor cell lines = settings: cited from earlier work
[4] = five minutes, immunoblot (FIG. 4B)

B1: Alexa Fluor 488-conjugated TFPI-2: Recombinant TFPI-2 protein labeled with Alexa Fluor 488 dye (conjugate, UniProt P48307 23-235, looked up)
Tissue factor pathway …: DAAQEPTGNNAEICLLPLDYGPCRALLLRYYYDRYTQSCRQFLYGGCEGNANNFYTWEACDDACWRIEKVPKVCRLQVSVDDQCEGSTEKYFFNLSSMTCEKFFSGGCHRNRIENRFPDEATCMGFCAPKKIPSFCYSPKDEGLCSANVTRYYFNPRYRTCDAFTYTGCGGNDNNFVSREDCKRACAKALKKKKKMPKLRFASRIRKIRKKQF
modifications: Alexa Fluor 488 label
notes: Recombinant TFPI-2 protein labeled with Alexa Fluor 488 dye
- Intracellular localization by confocal microscopy (HT-1080 cells [1]; 4° C., five minutes and 10 minutes (FIG. 1D)): limited punctate distribution of TFPI-2 in the cytosol
- Intracellular localization by confocal microscopy (HT-1080 cells [1]; 4° C., two hour time point (FIG. 1D)): significant cytosolic and nuclear-associated TFPI-2
- Intracellular localization by confocal microscopy (HT-1080 cells [1]; two-hour incubation at 37° C. (FIG. 1B)): cytosolic and nuclear localization of TFPI-2; also recorded: uniform distribution of TFPI-2

B2: TFPI-2^1-188: TFPI-2 construct lacking the carboxy-terminal tail (amino acids 189-213 of SEQ ID NO:1) (protein, listed as Homo sapiens)
chain: DAAQEPTGNNAEICLLPLDYGPCRALLLRYYYDRYTQSCRQFLYGGCEGNANNFYTWEACDDACWRIEKVPKVCRLQVSVDDQCEGSTEKYFFNLSSMTCEKFFSGGCHRNRIENRFPDEATCMGFCAPKKIPSFCYSPKDEGLCSANVTRYYFNPRYRTCDAFTYTGCGGNDNNFVSREDCKRACAK
modifications: tissue factor pathway inhibitor-2
- Internalization to cytosol and nucleus of HT-1080 cells (HT-1080 cells [2]; up to 30 minutes, immunoblot (FIG. 4A)): is not internalized as readily to either the cytosol or nucleus; also recorded: slowly internalized, but failed to be transported to the nucleus
- Localization of overexpressed protein (HT-1080 cells [3]): failed to demonstrate nuclear localization; also recorded: confined to the cytoplasm

B3: R24K KD1: Mutated first Kunitz-type domain of TFPI-2 (R24K), recombinant (protein)
chain: DAAQEPTGNNAEICLLPLDYGPCKALLLRYYYDRYTQSCRQFLYGGCEGNANNFYTWEACDDACWRIEKVPKV
modifications: left off: small tags and cut ends
notes: Mutated first Kunitz-type domain of TFPI-2 (R24K), recombinant
- Internalization to cytosol and nucleus of HT-1080 cells (HT-1080 cells [2]; [4]): is not internalized to either the cytosol or nucleus; also recorded: failed to enter the cells
- Internalization by HT-1080 cells after 48-hour incubation (HT-1080 cells [2]; 48-hour incubation at 37° C.): failed to be internalized
- Apoptosis induction potency relative to TFPI-2 (human tumor cell lines): more potent inducer of apoptosis than TFPI-2
- Induction of caspase-mediated apoptosis (human tumor cell lines; several tumor cell lines, exogenously offered, Kempaiah and Kisiel 2008): induce caspase-mediated apoptosis

B4: R24K KD1-CT: Chimera of first Kunitz-type domain (amino acids 1-73, R24K) and carboxy-terminal tail (amino acids 187-213) of TFPI-2, SEQ ID NO:2 (protein)
chain: DAAQEPTGNNAEICLLPLDYGPCRALLLRYYYDRYTQSCRQFLYGGCEGNANNFYTWEACDDACWRIEKVPKVEFAKALKKKKKMPKLRFASRIRKIRKKQF
modifications: chimera of the first Kunitz-type domain (with the R24K mutation) and the carboxy-terminal tail
- Internalization to cytosol and nucleus of HT-1080 cells (HT-1080 cells [2]; [4]): is internalized to both the cytosol and nuclear fractions; also recorded: rapidly internalized and translocated to the nucleus
- Internalization to cytosol and nucleus of HT-1080 cells (HT-1080 cells [2]; five minutes, immunoblot (FIG. 4B), listed as R24KD 1-CT): internalized and translocated to the nucleus within minutes
